Laboratory results taken from US20210369850, “COMPOUNDS AND […] USES […]” (CENTAURI THERAPEUTICS LIMITED, published 2021).

Columns and labels:
Conditions in all cases: tags: endogenous on A431 cells (ATCC CRL-1555)
[1] = target: T1, EGFR (epidermal growth factor receptor) (Homo sapiens, UniProt P00533 P00533:25-1210); assay: flow
Procedure: (§1) A secondary phycoerythrin labelled anti-human IgG antibody was used to detect binding of alpha-galactosyl IgG antibody to the compound.
(§2) A431 cells (ATCC CRL-1555) were harvested and resuspended at 5×10⁶ cells/mL in phosphate buffered saline (PBS) (Sigma D8662)+0.1% BSA (Bovine Serum Albumin-Sigma A2153)+0.1 mg/mL Yeast t-RNA (Invitrogen 15401-011)+5 mM MgCl₂ (Sigma M1028) and incubated on ice for 30 minutes to block. 5×10⁵ cells were then incubated with compound at various concentrations as described below or buffer alone at room temperature, shaking at 450 rpm for 1 hour. The cells were washed with 3×200 μL PBS+0.1% BSA, prior to adding 50 μL of Anti-alpha galactosyl IgG antibody (custom purification from human IVIG, Rockland Immunochemicals, Inc.) at 45 μg/mL in PBS+0.1% BSA and incubating at 4° C. for 1 hour. […] After a final wash of 3×200 μL PBS+0.1% BSA the cells were resuspended in 200 μL PBS+0.1% BSA and evaluated on a flow cytometer (FC500 Beckman Coulter). Data from all samples were analysed in the Kaluza software package (Beckman Coulter).
(§3) The fold shift over background was calculated by dividing the Mean Fluorescence Intensity (MFI) obtained in the presence of 10 nM or 1 μM alphamer by the Mean Fluorescence Intensity (MFI) obtained in the absence of alphamer. […]

[2] = target: T1, EGFR (epidermal growth factor receptor); assay: flow; at 1 uM (6.4 at 10 nM); same conditions
Procedure: as §1, §2, §3

[3] = target: T1, EGFR (epidermal growth factor receptor); assay: flow; at 1 uM (3.8 at 10 nM); same conditions
Procedure: as §1, §2, §3

[4] = target: T1, EGFR (epidermal growth factor receptor); assay: flow; at 1 uM (5.5 at 10 nM); same conditions
Procedure: as §1, §2, §3

[5] = target: T1, EGFR (epidermal growth factor receptor); assay: flow; at 1 uM (4.2 at 10 nM); same conditions
Procedure: as §1, §2, §3

[6] = target: T1, EGFR (epidermal growth factor receptor); assay: flow; at 1 uM (5.7 at 10 nM); same conditions
Procedure: as §1, §2, §3

[7] = target: T1, EGFR (epidermal growth factor receptor); assay: flow; at 1 uM (6.5 at 10 nM); same conditions
Procedure: as §1, §2, §3

[8] = target: T1, EGFR (epidermal growth factor receptor); assay: flow; at 1 uM (5.9 at 10 nM); same conditions
Procedure: as §1, §2, §3

[9] = target: T1, EGFR (epidermal growth factor receptor); assay: flow; at 1 uM (2.5 at 10 nM); same conditions
Procedure: as §1, §2, §3

[10] = target: T1, EGFR (epidermal growth factor receptor); assay: flow; at 1 uM (7.1 at 10 nM); same conditions
Procedure: as §1, §2, §3

[11] = target: T1, EGFR (epidermal growth factor receptor); assay: flow; at 1 uM (5.8 at 10 nM); same conditions
Procedure: as §1, §2, §3

[12] = target: T1, EGFR (epidermal growth factor receptor); assay: flow; at 1 uM (7.0 at 10 nM); same conditions
Procedure: as §1, §2, §3

## GGGAUUUAAUCGCCGUAGAAAAGCAUGUCAAAGCCGGAACCC (ssRNA, as N22 but 5' alpha-Gal moiety from Preparation 90) [RNA aptamer conjugate 4 (Example 26)]
[1]
  binding signal: 3.3 fold MFI over background

## GGGAUUUAAUCGCCGUAGAAAAGCAUGUCAAAGCCGGAACCC (ssRNA, as N22 but 5' alpha-Gal moiety from Preparation 97) [RNA aptamer conjugate 15 (Example 37)]
[2]
  binding signal: 12.2 fold MFI over background

## GGGAUUUAAUCGCCGUAGAAAAGCAUGUCAAAGCCGGAACCC (ssRNA, as N22 but 5' alpha-Gal moiety from Preparation 84) [RNA aptamer conjugate 7 (Example 29)]
[3]
  binding signal: 8.2 fold MFI over background

## GGGAUUUAAUCGCCGUAGAAAAGCAUGUCAAAGCCGGAACCC (ssRNA, as N22 but 5' alpha-Gal moiety from Preparation 83) [RNA aptamer conjugate 8 (Example 30)]
[4]
  binding signal: 10.5 fold MFI over background

## GGGAUUUAAUCGCCGUAGAAAAGCAUGUCAAAGCCGGAACCC (ssRNA, as N22 but 5' alpha-Gal moiety from Preparation 86) [RNA aptamer conjugate 6 (Example 28)]
[5]
  binding signal: 8.1 fold MFI over background

## GGGAUUUAAUCGCCGUAGAAAAGCAUGUCAAAGCCGGAACCC (ssRNA, as N22 but 5' alpha-Gal moiety from Preparation 91) [RNA aptamer conjugate 12 (Example 34)]
[5]
  binding signal: 7.6 fold MFI over background

## GGGAUUUAAUCGCCGUAGAAAAGCAUGUCAAAGCCGGAACCC (ssRNA, as N22 but 5' alpha-Gal moiety from Preparation 89) [RNA aptamer conjugate 10 (Example 32)]
[6]
  binding signal: 10.4 fold MFI over background

## GGGAUUUAAUCGCCGUAGAAAAGCAUGUCAAAGCCGGAACCC (ssRNA, as N22 but 5' alpha-Gal moiety from Preparation 92) [RNA aptamer conjugate 17 (Example 39)]
[7]
  binding signal: 10.4 fold MFI over background

## GGGAUUUAAUCGCCGUAGAAAAGCAUGUCAAAGCCGGAACCC (ssRNA, as N22 but 5' alpha-Gal moiety from Preparation 96) [RNA aptamer conjugate 13 (Example 35)]
[2]
  binding signal: 12.3 fold MFI over background

## GGGAUUUAAUCGCCGUAGAAAAGCAUGUCAAAGCCGGAACCC (ssRNA, as N22 but 5' alpha-Gal moiety from Preparation 88) [RNA aptamer conjugate 11 (Example 33)]
[8]
  binding signal: 11 fold MFI over background

## GGGAUUUAAUCGCCGUAGAAAAGCAUGUCAAAGCCGGAACCC (ssRNA, as N22 but 5' alpha-Gal moiety from Preparation 85) [RNA aptamer conjugate 5 (Example 27)]
[9]
  binding signal: 4.1 fold MFI over background

## GGGAUUUAAUCGCCGUAGAAAAGCAUGUCAAAGCCGGAACCC (ssRNA, as N22 but 5' alpha-Gal moiety from Preparation 95) [RNA aptamer conjugate 14 (Example 36)]
[10]
  binding signal: 12.4 fold MFI over background

## GGGAUUUAAUCGCCGUAGAAAAGCAUGUCAAAGCCGGAACCC (ssRNA, as N22 but 5' alpha-Gal moiety from Preparation 87) [RNA aptamer conjugate 9 (Example 31)]
[11]
  binding signal: 12.5 fold MFI over background

## GGGAUUUAAUCGCCGUAGAAAAGCAUGUCAAAGCCGGAACCC (ssRNA, as N22 but 5' alpha-Gal moiety from Preparation 98) [RNA aptamer conjugate 16 (Example 38)]
[12]
  binding signal: 13.6 fold MFI over background
